According to the supplement of paper PMC7125110:
± gives the standard error. For some of these results: This sample holds only a part of the variants without activity.

B1: glmS ribozyme (parent)
chain: AUAAAAGCGCCAGAACUACAGAAAUGUAGUUGACGAGGAGGAGGUUUAUCGAAUUUUCGGCGGAUGCCUCCAAA

Key:
Details in all cases: with glucosamine-6-phosphate
glucosamine-6-phosphate [1] = variants of: B1; assay: kcat; higher = faster cleavage; RNA array
How it was run: (§1)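 Ribozyme variants carrying barcodes were transcribed in situ on sequenced MiSeq chips by E. coli RNA polymerase and tracked at 37 °C with a hybridised Cy3 probe. They were exposed to 40 μM to 10 mM glucosamine-6-phosphate in HEPES/KCl/Mg(OAc)2 buffer. kobs came from exponential decay fits of normalised per-tile medians, and kcat and KM from weighted Michaelis–Menten fits.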

glucosamine-6-phosphate [2] = variants of: B1; assay: self-cleavage kobs at 2500 uM GlcN6P; higher = faster cleavage; RNA array
How it was run: as §1

glucosamine-6-phosphate [3] = variants of: B1; assay: self-cleavage kobs at 10000 uM GlcN6P; higher = faster cleavage; RNA array
How it was run: as §1

glucosamine-6-phosphate [4] = variants of: B1; assay: KM; higher = weaker cofactor use; RNA array
How it was run: as §1

glucosamine-6-phosphate [5] = variants of: B1; assay: self-cleavage kobs at 160 uM GlcN6P; higher = faster cleavage; RNA array
How it was run: as §1

glucosamine-6-phosphate [6] = variants of: B1; assay: self-cleavage kobs at 640 uM GlcN6P; higher = faster cleavage; RNA array
How it was run: as §1

glucosamine-6-phosphate [7] = variants of: B1; assay: self-cleavage kobs at 40 uM GlcN6P; higher = faster cleavage; RNA array
How it was run: as §1

Variant	kcat (glucosamine-6-phosphate [1])	self-cleavage kobs at 2500 uM GlcN6P (glucosamine-6-phosphate [2])	self-cleavage kobs at 10000 uM GlcN6P (glucosamine-6-phosphate [3])	KM (glucosamine-6-phosphate [4])	self-cleavage kobs at 160 uM GlcN6P (glucosamine-6-phosphate [5])	self-cleavage kobs at 640 uM GlcN6P (glucosamine-6-phosphate [6])	self-cleavage kobs at 40 uM GlcN6P (glucosamine-6-phosphate [7])
G40A U57C	3.56e-05 ± 5.2e-06 s⁻¹	4.59e-05 ± 2e-05 s⁻¹	3.15e-05 ± 1.2e-05 s⁻¹	–	–	–	–
G41U U46G	0.00077 ± 0.00021 s⁻¹	0.000433 ± 0.00011 s⁻¹	0.000804 ± 0.00021 s⁻¹	1560 ± 690 µM	8.6e-05 ± 2.2e-05 s⁻¹	0.000197 ± 4.2e-05 s⁻¹	–
G40C C67U	0.000108 ± 1.3e-05 s⁻¹	7.55e-05 ± 1.5e-05 s⁻¹	8.8e-05 ± 7e-06 s⁻¹	–	–	–	–
G40C C67A	0.000136 ± 2.4e-05 s⁻¹	0.000181 ± 2.9e-05 s⁻¹	0.000119 ± 1.3e-05 s⁻¹	–	–	6.63e-05 ± 1.2e-05 s⁻¹	–
G41U U49G	3.94e-05 ± 6e-06 s⁻¹	–	3.38e-05 ± 1e-05 s⁻¹	–	–	–	< 1e-05 s⁻¹
G40U G66A	0.00396 ± 0.00044 s⁻¹	0.00208 ± 0.0004 s⁻¹	0.00326 ± 0.00035 s⁻¹	2220 ± 390 µM	0.000207 ± 5.2e-05 s⁻¹	0.000901 ± 0.00016 s⁻¹	8.13e-05 ± 1.2e-05 s⁻¹
G40U G66U	6.98e-05 ± 5.6e-06 s⁻¹	3.54e-05 ± 7.3e-06 s⁻¹	5.9e-05 ± 7.2e-06 s⁻¹	2030 ± 510 µM	–	2.07e-05 ± 8.1e-06 s⁻¹	–
G41U C71U	0.000239 ± 3e-05 s⁻¹	0.000227 ± 2.9e-05 s⁻¹	0.000214 ± 1.7e-05 s⁻¹	885 ± 270 µM	4.38e-05 ± 8.4e-06 s⁻¹	8.95e-05 ± 9.5e-06 s⁻¹	1.98e-05 ± 8.9e-06 s⁻¹
G40U U56G	0.00147 ± 0.00055 s⁻¹	0.00136 ± 0.00015 s⁻¹	0.000885 ± 0.00019 s⁻¹	–	0.000107 ± 1.6e-05 s⁻¹	0.000431 ± 6e-05 s⁻¹	4.98e-05 ± 1.7e-05 s⁻¹
G40U C67A	0.000158 ± 6.3e-05 s⁻¹	9.78e-05 ± 1.7e-05 s⁻¹	0.000218 ± 5.5e-05 s⁻¹	–	–	7.75e-05 ± 1.4e-05 s⁻¹	–
G40U U45C C70U	0.000444 ± 6.4e-05 s⁻¹	0.00025 ± 8.8e-05 s⁻¹	0.000426 ± 7.7e-05 s⁻¹	1000 ± 370 µM	–	0.000186 ± 3.9e-05 s⁻¹	–
G41A U65A	0.000213 ± 2.1e-05 s⁻¹	0.000171 ± 3e-05 s⁻¹	0.000182 ± 3e-05 s⁻¹	1040 ± 220 µM	–	7.98e-05 ± 1.2e-05 s⁻¹	–
G41U A52U	0.000103 ± 1e-05 s⁻¹	7.47e-05 ± 1.3e-05 s⁻¹	8.78e-05 ± 1.2e-05 s⁻¹	1340 ± 510 µM	–	–	–
G41C C71A	0.000115 ± 2e-05 s⁻¹	0.000181 ± 2.7e-05 s⁻¹	0.000103 ± 8.1e-06 s⁻¹	–	–	5.78e-05 ± 1.1e-05 s⁻¹	–
G40C U49G	6.75e-05 ± 1.8e-05 s⁻¹	5.43e-05 ± 1.5e-05 s⁻¹	5.5e-05 ± 1.3e-05 s⁻¹	–	–	–	< 1e-05 s⁻¹
G40A C70G	0.00031 ± 9.1e-05 s⁻¹	0.000394 ± 0.00012 s⁻¹	0.000244 ± 6.4e-05 s⁻¹	–	–	0.000105 ± 1.9e-05 s⁻¹	–
G41C U47C	3.99e-05 ± 4.8e-06 s⁻¹	–	3.66e-05 ± 1.1e-05 s⁻¹	–	–	–	–
